These results are taken from patent publication US9382546.

This data set relates to recombinant overlapping peptides (ROP) fusion protein composed of 20 overlapping peptides covering HIV Nef (Lai) interspersed with Factor Xa sites (IEGR).

With “protease Factor Xa (New England Biolabs)”, the “protease digestion, SDS page and mass spectrometry” value is listed as “the ROP protein was cut by Factor Xa into overlapping peptides (ROP peptides) as shown in the mass spectrometry”.
